The values below come from the supplement of paper PMC12764529.

± gives the half width of the 95% confidence interval.

Data set [1] in a line: folding stability dG unfold from trypsin proteolysis; higher = more stable. In a few lines: (§1)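 Unfolding free energy was derived, per protease or combined, by relating Bayesian-fitted K50 values from sequencing counts to a sequence-predicted unfolded-state K50 and a shared folded-state K50. The underlying digests exposed cysteine-free mini-proteins under 80 residues, in a PA-tagged cDNA display construct, to trypsin and chymotrypsin at 11 threefold-diluted concentrations and to a no-protease condition. A filter kept only designs with AlphaFold2 dimer inter-PAE above 15.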

A short description of data set [2]: folding stability dG unfold from chymotrypsin proteolysis; higher = more stable. In a few lines:
as §1

A short description of data set [3]: folding stability dG unfold (combined trypsin and chymotrypsin); higher = more stable. Summed up: as §1

Consider “SAGGMLVRVTLPSGETVELPVTSLDAAARRLREELGLPAGARLRVEVYDPVTGEVTEYELVIPVPEPVSAGG [r13_145_TrMRF]”, for which the “folding stability dG unfold” value was 4.92 ± 0.18 kcal/mol in data set [1], 4.33 ± 0.062 kcal/mol in data set [2] and 4.68 ± 0.1 kcal/mol in data set [3].

With “SAGGMMKLELEIEKEDGKKYKIEVEYNKEEPVLKIKIYDKNGKKIKEIEIKAKSLEEALEAAKKLLKSAGGS [r16_158_TrROS_Hall]”, the “folding stability dG unfold” value in data set [1] was found to be 3.3 ± 0.14 kcal/mol; in data set [2] it was 3.99 ± 0.2 kcal/mol; in data set [3], 3.68 ± 0.22 kcal/mol.

As for “SAGGMMTVRIVIEKDGKKITITAKVTKIEFDEETGKLTITFEDGSKKEIDLDKLKIKKIEVEPAPEEESAGG [r13_636_TrROS_Hall]”, the “folding stability dG unfold” value was 1.66 ± 0.078 kcal/mol in data set [1], 3.06 ± 0.19 kcal/mol in data set [2] and 2.81 ± 0.21 kcal/mol in data set [3].

Consider “SAGGMMYLIKVDTKEELKELAEAPGAKIVEEKEVNGKLYLLIEFPPGVTKIKIDVETRKIVEIEKLPSAGGS [r8_251_TrROS_Hall]”, for which the “folding stability dG unfold” value stood at 0.759 ± 0.13 kcal/mol in data set [1], 1.58 ± 0.15 kcal/mol in data set [2] and 1.37 ± 0.26 kcal/mol in data set [3].

For “SAGGMNMKPIKKETFTLPDENGNEVKIEIYKLEDGSYIIKITYPSGKTETFIVPDEETAKNLKIEIKPSAGG [r13_109_TrMRF]”, the “folding stability dG unfold” value came to 1.66 ± 0.12 kcal/mol in data set [1], 2.91 ± 0.046 kcal/mol in data set [2] and 2.62 ± 0.18 kcal/mol in data set [3].

As for “SAGGMNTESSFPITLPDGRKVLKNVKTDPETGEITVTVTSIGDPNVKTTEKVDPENPEKVLETVTKPESAGG [r13_400_JUSTAS]”, the “folding stability dG unfold” value is -0.353 ± 0.037 kcal/mol in data set [1], 0.206 ± 0.11 kcal/mol in data set [2] and 0.0461 ± 0.15 kcal/mol in data set [3].

On to “SAGGMNVSYLFSKSVPKEEIEAYLKKLDPNKKYKFEELEPEEIEKLPESIEVIEKPVDETLRLVLVEESAGG [r13_649_JUSTAS]”, for which the entries for the “folding stability dG unfold” value in data set [1], in data set [2] and in data set [3] were -0.323 ± 0.092 kcal/mol, 0.765 ± 0.11 kcal/mol and 0.473 ± 0.12 kcal/mol, respectively.

Regarding “SAGGMNVTVTVELVPLPDEPVLFVTVETEDGSVSVITFDPATGTATVLKVSPTKTEITTVPAEDILLASAGG [r13_328_TrMRF]”, the “folding stability dG unfold” value in data set [1] came to 1.8 ± 0.13 kcal/mol; in data set [2], 2.79 ± 0.11 kcal/mol; in data set [3] it was 2.43 ± 0.2 kcal/mol.

With “SAGGMPADTPVIPIEILDIRVEPDPESDSYTAEVKVRFPDGTEKTFTIKLPKDATLEDVIEKAKELAASAGG [r13_578_TrMRF]”, the “folding stability dG unfold” value in data set [1] was 3.83 ± 0.2 kcal/mol; in data set [2], 4.09 ± 0.11 kcal/mol; in data set [3], 4.1 ± 0.18 kcal/mol.

As for “SAGGMPDITEVELLDVEYDPETGTYRFRVKVKLKDGTEREVEIPFVDEDGDFGIEEILKAAEELVEESAGGS [r16_221_TrMRF]”, the “folding stability dG unfold” value in data set [1] came to 2.71 ± 0.14 kcal/mol; in data set [2], 4 ± 0.045 kcal/mol; in data set [3], 3.66 ± 0.18 kcal/mol.

For “SAGGMPEDMKLKFKVVDFRPHPHPDGYQIVELFYNDKLLRRLRVPPGLAVKLAKELPEDVALVTLPESAGGS [r8_41_TrMRF]”, the “folding stability dG unfold” value in data set [1] stood at 0.828 ± 0.086 kcal/mol; in data set [2], 1.53 ± 0.14 kcal/mol; in data set [3], 1.28 ± 0.09 kcal/mol.

As to “SAGGMPENMKWRPIPFTQKNPDGLTLKMKIWVFPDPYILIEHEVEDNGKPVAEIPILLPADDPEDLKSAGGS [r16_714_TrROS]”, the “folding stability dG unfold” value is -0.66 ± 0.6 kcal/mol in data set [1], 0.513 ± 0.42 kcal/mol in data set [2] and 0.389 ± 0.2 kcal/mol in data set [3].

Regarding “SAGGMPGVRPVVTVTVLVKFPGPDETKTVTITMRPEELAAGVTPEAAARRVAEALGHDIEILEIERKSAGGS [r16_554_JUSTAS]”, the “folding stability dG unfold” value came to 1.4 ± 0.04 kcal/mol in data set [1], 1.86 ± 0.031 kcal/mol in data set [2] and 1.61 ± 0.088 kcal/mol in data set [3].

“SAGGMPIILLEEKKLPNGEPVYRITLLERDPNDGSWRPIEEDELKTKEEAEERAKAIAEKRGVELLKSAGGS [r16_512_JUSTAS]”: the “folding stability dG unfold” value in data set [1] was determined as 1.57 ± 0.026 kcal/mol; in data set [2], 1.34 ± 0.036 kcal/mol; in data set [3], 1.43 ± 0.053 kcal/mol.

In the case of “SAGGMPKTIEVEIVFKRDEEGKIGIDKIKKAAEELAKKFPEVKKVEVDIEEDPETDYVKVKVKVEVESAGGS [r8_258_TrMRF]”, the “folding stability dG unfold” value in data set [1] turned out to be 1.75 ± 0.059 kcal/mol; in data set [2], 2.34 ± 0.032 kcal/mol; in data set [3], 2.1 ± 0.14 kcal/mol.

“SAGGMPLDSPEVQRRLAALKEALAKAEALREAGLEVKVVSIEFDPETREVTIEVEVRPAPPPPPEEPSAGGS [r8_277_TrROS_Hall]”: the figures for the “folding stability dG unfold” value in data set [1], in data set [2] and in data set [3] were 1.81 ± 0.1 kcal/mol, 1.77 ± 0.083 kcal/mol and 1.92 ± 0.12 kcal/mol, respectively.

As for “SAGGMPLVELEIVLPKEELEKLEEALRKLGYKVVKIEVVEYDPENDLVRVRIVLEKPMTLEELKKALKSAGG [r13_725_TrROS_Hall]”, the “folding stability dG unfold” value in data set [1] amounted to 3.72 ± 0.11 kcal/mol; in data set [2] it was 4.74 ± 0.18 kcal/mol; in data set [3] it was 4.63 ± 0.61 kcal/mol.

Regarding “SAGGMPPENIKEITEVERNPDGMKEITIEMEDPELAKQGNPEQVDQMAEWLQDEFPDRGIPVTIEPGPSAGG [r13_243_TrROS]”, the “folding stability dG unfold” value in data set [1] was 0.514 ± 0.081 kcal/mol; in data set [2], -0.435 ± 0.28 kcal/mol; in data set [3], 0.0457 ± 0.28 kcal/mol.

As to “SAGGMPPGYRVVLVTKEVETVTFEKKPGNENEYTTTPKIVPREEVVEVTSPEVLAELEAEGYEVTPASAGGS [r8_482_JUSTAS]”, the “folding stability dG unfold” value in data set [1] was 0.00788 ± 0.031 kcal/mol; in data set [2], -0.154 ± 0.17 kcal/mol; in data set [3], -0.0223 ± 0.11 kcal/mol.

For the sequence “SAGGMPPVKVPVKVTISMKDPKTGKTFTVPVEKVATSEEDLEEIKKEVEELAKELKEKGYKEIEIKIESAGG [r13_360_JUSTAS]”, the “folding stability dG unfold” value was determined as 2.14 ± 0.061 kcal/mol in data set [1], 3.14 ± 0.08 kcal/mol in data set [2] and 2.87 ± 0.1 kcal/mol in data set [3].

Consider “SAGGMPTTSSSAVKLDGGSDSVTTTTLPDGSRVVYIVSSDGKVYKATVTGGTTTWTEVKTVPPAELSSAGGS [r16_48_JUSTAS]”, for which the results for the “folding stability dG unfold” value in data set [1], in data set [2] and in data set [3] were 1.53 ± 0.031 kcal/mol, 2.406 ± 0.018 kcal/mol and 2.13 ± 0.051 kcal/mol, respectively.

Turning to “SAGGMPVTVEITVDLVLDPRYRPRPVYPPGETWREPERRVLPVTFTATFGDPEDAERAAVELLRALGVSAGG [r13_35_TrMRF]”, the “folding stability dG unfold” value amounted to 0.866 ± 0.041 kcal/mol in data set [1], 1.73 ± 0.032 kcal/mol in data set [2] and 1.45 ± 0.062 kcal/mol in data set [3].

In the case of “SAGGMPVTVTLDLSDLTPEEIERLLTEAVEAHPDPAAVTVRVKTDDPALEAAVRAAAEALPAVAVTLESAGG [r13_718_JUSTAS]”, the “folding stability dG unfold” value is -0.86 ± 0.54 kcal/mol in data set [1], 0.263 ± 0.051 kcal/mol in data set [2] and 0.0912 ± 0.21 kcal/mol in data set [3].

With “SAGGMPVVKVTLRVELPETGETVDVTLYVDPSVPEEYLERLVRRVAEEVARLLRLPPPPVPPRPDELSAGGS [r16_191_TrMRF]”, the results for the “folding stability dG unfold” value in data set [1], in data set [2] and in data set [3] were 3.29 ± 0.12 kcal/mol, 3.64 ± 0.057 kcal/mol and 3.52 ± 0.095 kcal/mol, respectively.

“SAGGMPYTLVGEKTESLGEGNTVVTKTYKPPDGTYTVETTTITTDPENGSTSTTSTTTTIPPNTPEALSAGG [r19_173_JUSTAS]”: the “folding stability dG unfold” value in data set [1] was -1.12 ± 0.34 kcal/mol; in data set [2], 0.334 ± 0.25 kcal/mol; in data set [3], -0.1 ± 0.31 kcal/mol.

With “SAGGMRLVFVTETPEEAEEIARELAELFPDFELEAEVREEEVLVEVPETGEVKRRPVYVLVIELRPKSAGGS [r16_828_TrMRF]”, the “folding stability dG unfold” value in data set [1] is 4.29 ± 0.098 kcal/mol; in data set [2], 4.42 ± 0.059 kcal/mol; in data set [3], 4.41 ± 0.079 kcal/mol.

For “SAGGMSITITTNAPKEVLLRFIKDLAEEIGVEVDVEVTVEPLEDGPIVTAHVHIDPKEPEVPLEELFSAGGS [r16_262_TrMRF]”, the entries for the “folding stability dG unfold” value in data set [1], in data set [2] and in data set [3] were 0.75 ± 0.018 kcal/mol, 0.384 ± 0.074 kcal/mol and 0.642 ± 0.085 kcal/mol, respectively.

For “SAGGMSKEELAKKLAKELAEKLGIKEIKEIKIEKKKDKVKITIVFKENKKIIEIELKDGKIVKIKEKSAGGS [r16_171_TrROS_Hall]”, the “folding stability dG unfold” value in data set [1] is 3.36 ± 0.15 kcal/mol; in data set [2], 3.22 ± 0.16 kcal/mol; in data set [3] it was 3.26 ± 0.16 kcal/mol.

“SAGGMSLHIPLPANNEELAEELAEELRDLYAAIPGTPGEVEVDIEPTPEGGYRLIVRFPDHVDEIPASAGGS [r16_356_TrMRF]”: the entries for the “folding stability dG unfold” value in data set [1], in data set [2] and in data set [3] were 1.3 ± 0.014 kcal/mol, 1.19 ± 0.11 kcal/mol and 1.34 ± 0.073 kcal/mol, respectively.

Take “SAGGMSPELKKNKNVEKVIYNKKTGKVFVYNKKTKKLYIFTKNGKKIEIKMSKDEVEKLLKKGFKPISAGGS [r16_745_TrROS_Hall]”: the “folding stability dG unfold” value turned out to be 2.14 ± 0.11 kcal/mol in data set [1], 3.22 ± 0.16 kcal/mol in data set [2] and 2.86 ± 0.2 kcal/mol in data set [3].

As to “SAGGMTEELEITTPDNYKIKITKTLNPNTTKPTYTVKIYEKKSGKVLLEKEFSSLEEAEEFIKNGYGSAGGS [r8_450_TrMRF]”, the figures for the “folding stability dG unfold” value in data set [1], in data set [2] and in data set [3] were 4.73 ± 0.18 kcal/mol, 4.596 ± 0.042 kcal/mol and 4.65 ± 0.069 kcal/mol, respectively.

Turning to “SAGGMTIEEILNMSIEEVKALAEEKGLKEVVITLPDGSKITIKVNKDGSIEVTVTNKDGSKKTFTFPSAGGS [r8_51_TrROS_Hall]”, the “folding stability dG unfold” value in data set [1] came out at 3.91 ± 0.42 kcal/mol; in data set [2], 3.97 ± 0.1 kcal/mol; in data set [3], 4.05 ± 0.24 kcal/mol.

Turning to “SAGGMTIEELLKKNPELKELVKKGYVIEITYPDGKKETIKISEEDLKKILDDIKKKTNKPVEIKILPSAGGS [r16_655_TrROS_Hall]”, the “folding stability dG unfold” value in data set [1] worked out at 1.05 ± 0.081 kcal/mol; in data set [2], 1.82 ± 0.17 kcal/mol; in data set [3], 1.54 ± 0.32 kcal/mol.

Take “SAGGMTIITTTFTLKLPSNGKVVTVTKTYNLSPEEGKKEAEKIAKEIAEELKEPTEILEIKITYYPESAGGS [r16_140_JUSTAS]”: the “folding stability dG unfold” value in data set [1] came out at 1.26 ± 0.092 kcal/mol; in data set [2] it was 2 ± 0.085 kcal/mol; in data set [3] it was 1.7 ± 0.27 kcal/mol.

Turning to “SAGGMTIKPGETVEIEVGGKKITLTRNENGELTITIEDEETGETLTITVPKDTTLEEVLKKIEELLKSAGGS [r8_158_TrROS_Hall]”, the results for the “folding stability dG unfold” value in data set [1], in data set [2] and in data set [3] were 4.04 ± 0.15 kcal/mol, 3.45 ± 0.064 kcal/mol and 3.61 ± 0.06 kcal/mol, respectively.
